From the supplement of paper PMC9732359
± gives the uncertainty stated by the source.

Test: protein stability index of a GFP-peptide fusion (yeast GPS) (PSI 1-4); higher = more stable; sorted into four equal gates, so the index is relative within each strain
How it was run: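 Tiled 17-residue yeast protein peptides were fused downstream of GFP in a plasmid that also expresses Cherry, and the pooled library was carried in yeast. Mid-log cultures in leucine-free medium were sorted into four equal gates by GFP/Cherry fluorescence ratio, and plasmids from each gate were PCR-amplified and Illumina-sequenced, with reads assigned to strains by barcodes. The protein stability index for each peptide was each gate's read frequency times its gate number, summed.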

Sequence | protein stability index (doa10∆) | protein stability index (pdr5∆) | protein stability index (san1∆) | protein stability index (ubr1∆)
INHKINNKITQLIAKNV [SIR3] | 1.58 ± 0.063 | 1.7 ± 0.062 | 2.22 ± 0.077 | 2.16 ± 0.064
INIKYLRLDGHTKSDER [SNF2] | 3.1 ± 0.083 | 2.11 ± 0.063 | 2.29 ± 0.098 | 2.79 ± 0.063
ININEFALPAGSPKSAT [CDC53] | 2.71 ± 0.067 | 2.76 ± 0.053 | 2.64 ± 0.07 | 2.73 ± 0.04
INKMVGNRYLEKRLNLR [RPL21A] | 2.65 ± 0.085 | 2.8 ± 0.077 | 2.92 ± 0.092 | 3 ± 0.065
INSAPDFTQEDELRKQE [ISW2] | 3.24 ± 0.084 | 3.52 ± 0.068 | 3.4 ± 0.062 | 3.46 ± 0.057
INSTKNGKDNNNESNKN [MED2] | 3.08 ± 0.052 | 3.15 ± 0.045 | 3.22 ± 0.038 | 3.19 ± 0.033
INVDNDPFFAQSEDLSH [YML103C/NUP188] | 3.15 ± 0.055 | 3.08 ± 0.056 | 3.15 ± 0.044 | 3.05 ± 0.046
IPAWFLNRQNDITDGKD [RPS18A] | 2.91 ± 0.17 | 3.22 ± 0.15 | 2.76 ± 0.2 | 2.87 ± 0.09
IPISSETTIDDLPISST [SMC1] | 2.68 ± 0.047 | 2.72 ± 0.061 | 2.68 ± 0.047 | 2.99 ± 0.041
IPLGKNVVVKWQGKPVF [RIP1] | 3.36 ± 0.26 | – | 3.42 ± 0.07 | 2.96 ± 0.26
IPMDFIRNVLVTVDQYV [SSN2] | 1.13 ± 0.047 | 1.58 ± 0.056 | 1.33 ± 0.091 | 1.63 ± 0.06
IPNLTAKPFQVTKEYFQ [FAS1] | 2.61 ± 0.051 | 2.95 ± 0.049 | 3.04 ± 0.061 | 2.79 ± 0.041
IPPPMPKNQQYRAFGSI [MED7] | 2.04 ± 0.083 | 2.31 ± 0.093 | 2.42 ± 0.1 | 2.04 ± 0.071
IPRHLQLAIRNDDELNK [HTA1] | 3.02 ± 0.093 | 3.23 ± 0.063 | 3.28 ± 0.059 | 2.89 ± 0.062
IPSQRGTSTTHGSISPQ [SIR3] | 2.39 ± 0.033 | 2.58 ± 0.035 | 2.37 ± 0.036 | 2.54 ± 0.026
IPTLAIDSVEVETNTTV [RPB3] | 2.82 ± 0.22 | 2.44 ± 0.16 | 2.94 ± 0.083 | 2.98 ± 0.059
IPVEILVRRLSDIKQGY [PRE9] | 2.95 ± 0.08 | 2.72 ± 0.095 | 2.79 ± 0.061 | 2.87 ± 0.06
IPVGDNTVVGISGDISD [PRE4] | 2.98 ± 0.13 | 3.12 ± 0.12 | 2.85 ± 0.16 | 3.02 ± 0.12
IPYAAKLLFQELMAMNI [RPB2] | 1.64 ± 0.13 | 1.66 ± 0.098 | 1.64 ± 0.29 | 1.55 ± 0.055
IPYGPDFDNIEFKKIPR [SEC65] | 3.21 ± 0.093 | 3.1 ± 0.11 | 2.87 ± 0.075 | 3.17 ± 0.084
IQAVFCLTKFQDEEQTE [YCG1] | 2.23 ± 0.057 | 2.24 ± 0.062 | 2.64 ± 0.057 | 2.82 ± 0.06
IQCQIDKLYIHFVQEEP [RGR1] | 2.09 ± 0.093 | 2.55 ± 0.093 | 2.85 ± 0.083 | 3.15 ± 0.095
IQFGAKNMFEKKASKVT [ISW2] | 2.66 ± 0.07 | 2.91 ± 0.072 | 2.68 ± 0.074 | 2.69 ± 0.11
IQKESTLHLVLRLRGGG [RPS31] | 2.64 ± 0.12 | 2.31 ± 0.067 | 1.75 ± 0.096 | 2.45 ± 0.066
IQLLDENVGTRLLPINV [MED11] | 3.09 ± 0.16 | 2.86 ± 0.1 | 3.14 ± 0.066 | 3.16 ± 0.063
IQLSTVNRQSPLFFVDL [RGR1] | 1.59 ± 0.08 | 1.69 ± 0.094 | 1.9 ± 0.12 | 1.76 ± 0.099

Sequence | protein stability index (doa10∆) | protein stability index (pdr5∆) | protein stability index (san1∆) | protein stability index (ubr1∆)
IQNKKIQEQRVKDKQSK [RPN8] | 1.97 ± 0.11 | 2.78 ± 0.13 | – | 2.92 ± 0.13
IQPTAKVVYIQRRSWRQ [DIS3] | 1.52 ± 0.1 | 1.48 ± 0.072 | 1.31 ± 0.13 | 1.16 ± 0.12
IQQLISQFLKRVHANLQ [SNF11] | 1.63 ± 0.051 | 1.61 ± 0.044 | 1.52 ± 0.068 | 1.54 ± 0.038
IQRTTESLILKWDNQSA [RGR1] | 3.14 ± 0.051 | 3.05 ± 0.056 | 2.36 ± 0.059 | 2.94 ± 0.05
IQSKAVEQGYEDAFNFW [YCG1] | 3.37 ± 0.13 | 3.33 ± 0.17 | 3.57 ± 0.12 | –
IQYVTYLLTQQQIWKSP [SOH1] | 2.16 ± 0.056 | 2.07 ± 0.057 | 1.71 ± 0.074 | 2.09 ± 0.047
IRAELLNDRKVLFAAYK [RPB11] | 2.18 ± 0.081 | 2.19 ± 0.063 | 2.45 ± 0.098 | 2.23 ± 0.061
IRGILMASGSTTFTKVA [PRP8] | 2.76 ± 0.063 | 2.02 ± 0.1 | 2.02 ± 0.16 | 2.15 ± 0.088
IRIYFTEKDDNKTNNED [NUT1] | 2.82 ± 0.1 | 2.95 ± 0.071 | 2.84 ± 0.13 | 2.87 ± 0.074
IRKGANDGEVYQKIFKP [PRE9] | 2.06 ± 0.098 | 1.81 ± 0.068 | – | 1.83 ± 0.059
IRKGPAPLNLEIPAYEF [RIP1] | 2.76 ± 0.062 | 2.58 ± 0.083 | 2.67 ± 0.06 | 2.73 ± 0.062
IRKLTLRDTFIELDQVL [RPO21] | 2.31 ± 0.12 | 2.89 ± 0.079 | 2.7 ± 0.074 | 2.23 ± 0.11
IRKYGLNICRQCFREKA [RPS29A] | 1.59 ± 0.067 | 1.67 ± 0.045 | 1.32 ± 0.11 | 1.73 ± 0.065
IRLANESSELNKDSIEE [CSN12] | 3.22 ± 0.084 | 3.43 ± 0.079 | 3.34 ± 0.065 | 3.37 ± 0.083
IRLSKILEDDFAVALKN [CDC53] | 3.19 ± 0.15 | 3.16 ± 0.14 | 3.04 ± 0.072 | 3.04 ± 0.08
IRPTELRLPFSAAMSID [PRP8] | 1.93 ± 0.049 | 1.98 ± 0.037 | 1.78 ± 0.057 | 2.24 ± 0.037
IRSSRSRGIVIGSGAMS [RPP1] | 2.63 ± 0.085 | 2.77 ± 0.09 | 2.63 ± 0.091 | 2.46 ± 0.073
ISHDDLQAVAVAVSTKK [FAS2] | 1.47 ± 0.29 | 1.48 ± 0.099 | 1.19 ± 0.12 | 1.32 ± 0.23
ISHIEKRIESLQKDLQR [SMC1] | 1.86 ± 0.065 | 2.48 ± 0.077 | 1.75 ± 0.09 | 1.85 ± 0.066
ISICMILCGIQEYLNPV [YDL116W/NUP84] | 1.97 ± 0.1 | 1.61 ± 0.11 | – | 1.87 ± 0.14
ISKKIIGMSLLMRTFLY [SIR3] | 1.79 ± 0.081 | 2.31 ± 0.065 | 1.99 ± 0.083 | 1.75 ± 0.077
ISKSLTFSQESGLMVIL [RRI2] | 2.23 ± 0.095 | 2.33 ± 0.11 | 2.29 ± 0.094 | 2.27 ± 0.072
ISLPKGKGIKLSIAEER [RPS4A] | 2.03 ± 0.15 | 2.18 ± 0.28 | 2.62 ± 0.081 | 2.47 ± 0.077
ISNYNTKYTDDMATGSN [SRB8] | 3.04 ± 0.1 | 2.52 ± 0.11 | 3.21 ± 0.058 | 2.94 ± 0.085
ISPKGGRRISENGQRDL [RPS19A] | – | 2.81 ± 0.2 | 3.19 ± 0.13 | 2.86 ± 0.11
ISPKIWCAGAGTAADTE [PUP1] | 2.29 ± 0.1 | 2.36 ± 0.088 | 2.42 ± 0.12 | 2.24 ± 0.08
